From paper doi:10.1101/2023.02.02.526371 come the findings set out here.

This data set deals with T1, PIF3-GST (Arabidopsis thaliana, UniProt O80536 1-524).
T1 sequence: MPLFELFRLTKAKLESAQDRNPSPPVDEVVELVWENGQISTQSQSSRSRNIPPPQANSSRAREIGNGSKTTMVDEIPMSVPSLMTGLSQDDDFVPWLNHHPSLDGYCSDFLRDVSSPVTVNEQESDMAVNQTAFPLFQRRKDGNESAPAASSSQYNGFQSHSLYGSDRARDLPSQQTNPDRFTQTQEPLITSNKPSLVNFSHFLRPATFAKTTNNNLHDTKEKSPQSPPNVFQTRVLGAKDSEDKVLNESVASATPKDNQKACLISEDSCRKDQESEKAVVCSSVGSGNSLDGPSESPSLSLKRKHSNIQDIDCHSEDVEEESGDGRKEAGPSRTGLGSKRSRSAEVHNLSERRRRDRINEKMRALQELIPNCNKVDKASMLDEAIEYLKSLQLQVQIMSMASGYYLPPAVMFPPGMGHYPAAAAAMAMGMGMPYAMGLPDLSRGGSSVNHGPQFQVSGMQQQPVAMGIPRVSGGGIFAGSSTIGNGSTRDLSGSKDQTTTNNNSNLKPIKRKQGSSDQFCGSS
The data set can be described thus: EMSA. (In general: A gel shift assay detects complexes by their altered migration in electrophoresis.)

B1: PIEZO promoter probe 2 (dsDNA)
DNA 1: ATCCAAATGGACCACATGCCCATCAACCTCCAT
DNA 2: ATGGAGGTTGATGGGCATGTGGTCCATTTGGAT
With B1, the binding result is “binds”.

B2: PIEZO promoter probe 1 (dsDNA)
DNA 1: CCTAGAACTAAACACATGAGCCTCCTTCTT
DNA 2: AAGAAGGAGGCTCATGTGTTTAGTTCTAGG
For B2, the binding result is “binds”.
